This assay in a line: SPR (Biacore) Protein A mAb capture, Compound A injected. The settings on record: 37° C., binding to Compound A, for rank ordering only. The method, then:
The binding of hybridoma expressed 26D5 parent mAb (VH SEQ ID NO: 83 and VL SEQ ID NO: 98 in IgG1 f format)(P1-072224) and affinity matured mAbs to Compound A was examined by SPR (Biacore™) using a protein A capture method. The running buffer was 1×PBS (phosphate buffered saline, pH 7.4) with 0.05% Tween 20 and 2% DMSO. Binding experiments were carried out at 37° C. Protein A was coated on a CM5 S-series sensor chip (Cytiva, Cat. No. 29149603) at high density (2000+ RUs of protein A). The immobilization of protein A was carried out using the standard amine coupling immobilization procedure recommended by the manufacturer. The affinity matured antibody was then captured at a concentration of 2 ug/mL on the protein A surface at a flow rate of 3 uL/min for 2 minutes. Compound A was then injected over the captured antibody at concentrations spanning 100-3 nM (100, 50, 25, 12.5, 6.25, 3.125 nM) (FIG. 10) and for screening concentrations spanning 100-3 nM (100, 33, 11 nM) for 2 minutes at a flow rate of 100 uL/min and allowed to dissociate for at least 450 seconds. The chip surface was regenerated after each cycle with a 40 second pulse of 10 mM Glycine, pH 1.5. Background binding to the protein A surface alone was used to subtract non-specific binding. All experiments were run on a Biacore T200 surface plasmon resonance instrument using Biacore T200 Control software v. 2. Data analysis was performed using Biacore T200 evaluation software v 3.1. Apparent affinities were determined for rank ordering only since dissociation rates were too slow to be measured by Biacore. The names of the mAbs in Table 10 refer to mAbs having the H and L chain sequences of the corresponding Fabs in Table 3 in an IgG1f format.

Setting [1] is: apparent affinity, read-out: KD.

Numbering of substitutions follows the chain as printed. Where two headings read alike, the source gives them in different places.

B1: 26D5-75602-348-F04-mAb: human IgG1f/kappa mAb; VH SEQ ID NO: 58, VL SEQ ID NO: 88 (antibody, V domains shown)
VH: EVQLVESGGGLIQPGGSLRLSCAASGFTVSSNQFSWVRQAPGKGLEWVSYFYPGGRTYYADSVKGRFTISRDNSKNTLYLQMNSLRAEDTAVYYCAKAGFGGGDYWGQGTLVTVSS
VL: DIQMTQSPSSVSASVGDRVTITCRASQGISSNLAWYQQKPGKAPKLLIYAASSLQSGVPSRFSGSGSGTDFTLTISSLQPEDFATYYCQQANSFPLTFGGGTKVEIK
As for B1, under setting [1], the Kd is below 0.05 nM. Moreover, under “apparent”, the “Ka” value was determined as 910000 M⁻¹ s⁻¹ and the “Kd” value is below 5e-05 s⁻¹.

B2: 26D5-296-G08-mAb: human IgG1f/kappa mAb; VH SEQ ID NO: 70, VL SEQ ID NO: 95 (antibody, V domains shown)
VH: B1 VH with T28Q, Q33Y, F34M, Y50F, F51I, P53S, K97R
VL: B1 VL with G28Y, S30E
B2: the Kd under setting [1] is 0.49 nM. Where the note is “apparent”, the “Ka” value was determined as 800000 M⁻¹ s⁻¹ and the “Kd” value amounted to 0.00039 s⁻¹.

B3: 25D5-296-A07-mAb: human IgG1f/kappa mAb; VH SEQ ID NO: 60, VL SEQ ID NO: 93 (antibody, V domains shown)
VH: B1 VH with Q33A, F34M, Y50F, F51I, K97R
VL: B1 VL with N32W, A91H
As for B3, the Kd stood at 1.6 nM under setting [1] and 0.00027 s⁻¹ (apparent). The “Ka” value (apparent) stood at 170000 M⁻¹ s⁻¹.

B4: 26D5-75746-0348-C07-mAb: human IgG1f/kappa mAb; VH SEQ ID NO: 57, VL SEQ ID NO: 92 (antibody, V domains shown)
VH: B1 VH with Q33A, F51I, P53S, K97A
VL: B1 VL with N32Q, L33V, A50P, S53N, Q55W, S93N
For B4, the Kd under setting [1] worked out at 0.1 nM. For the same molecule, under “apparent”, the “Ka” value stood at 2.4e+06 M⁻¹ s⁻¹ and the “Kd” value is 0.00024 s⁻¹.

B5: 26D5-296-F03-mAb: human IgG1f/kappa mAb; VH SEQ ID NO: 70, VL SEQ ID NO: 88 (antibody, V domains shown)
VH: B1 VH with T28Q, Q33Y, F34M, Y50F, F51I, P53S, K97R
VL: B1 VL
In the case of B5, the Kd is 0.54 nM under setting [1] and 0.00039 s⁻¹ (apparent). Also, for the setting “apparent”, the “Ka” value came to 720000 M⁻¹ s⁻¹.

B6: 26D5-296-B07-mAb: human IgG1f/kappa mAb; VH SEQ ID NO: 68, VL SEQ ID NO: 93 (antibody, V domains shown)
VH: B1 VH with T28Q, Q33A, F34M, Y50F, F51I, P53S, K97R
VL: B1 VL with N32W, A91H
For B6, the Kd under setting [1] stood at 1.8 nM. Besides, where the note is “apparent”, the “Ka” value worked out at 290000 M⁻¹ s⁻¹ and the “Kd” value amounted to 0.00042 s⁻¹.

B7: 26D5-295-G07-mAb: human IgG1f/kappa mAb; VH SEQ ID NO: 69, VL SEQ ID NO: 88 (antibody, V domains shown)
VH: B1 VH with Q33Y, F34M, Y50F, F51I, K97R, A98G
VL: B1 VL
B7: under setting [1], the Kd was determined as 0.67 nM. Also, for the setting “apparent”, the “Ka” value was determined as 630000 M⁻¹ s⁻¹ and the “Kd” value worked out at 0.00043 s⁻¹.

B8: 26D5-075017-343-F04-mAb: human IgG1f/kappa mAb; VH SEQ ID NO: 60, VL SEQ ID NO: 91 (antibody, V domains shown)
VH: B1 VH with Q33A, F34M, Y50F, F51I, K97R
VL: B1 VL with Y36W
Regarding B8, the Kd is, setting by setting: under setting [1], 0.11 nM; (apparent) 0.00017 s⁻¹. The “Ka” value (apparent) turned out to be 1.5e+06 M⁻¹ s⁻¹.

B9: 26D5-296-G07-mAb: human IgG1f/kappa mAb; VH SEQ ID NO: 65, VL SEQ ID NO: 94 (antibody, V domains shown)
VH: B1 VH with S31E, Q33Y, F34M, Y50F, F51I, P53S, K97R
VL: B1 VL with G28Y
For B9, the Kd under setting [1] was determined as 0.38 nM. Besides, under “apparent”, the “Ka” value stood at 850000 M⁻¹ s⁻¹ and the “Kd” value was 0.00032 s⁻¹.

B10: 26D5-296-C08-mAb: human IgG1f/kappa mAb; VH SEQ ID NO: 66, VL SEQ ID NO: 95 (antibody, V domains shown)
VH: B1 VH with T28Q, Q33A, F34M, Y50F, F51I, P53S, K97R, A98G
VL: B1 VL with G28Y, S30E
In the case of B10, the Kd was 0.59 nM under setting [1] and 0.00031 s⁻¹ (apparent). Where the note is “apparent”, the “Ka” value amounted to 530000 M⁻¹ s⁻¹.

B11: 25D5-75592-0348-A04-mAb: human IgG1f/kappa mAb; VH SEQ ID NO: 61, VL SEQ ID NO: 89 (antibody, V domains shown)
VH: B1 VH with Q33A, F34I, S35A, S49A, F51I, A96V, K97T
VL: B1 VL with L33N, A34Q, A50Y, A91G, S93E
Turning to B11, under setting [1], the Kd was found to be 0.1 nM. For the setting “apparent”, the “Ka” value was found to be 1e+06 M⁻¹ s⁻¹ and the “Kd” value was 0.00011 s⁻¹.

B12: 26D5-296-F08-mAb: human IgG1f/kappa mAb; VH SEQ ID NO: 73, VL SEQ ID NO: 95 (antibody, V domains shown)
VH: B1 VH with Q33Y, F34M, Y50F, F51I, R56E, K97R, A98G
VL: B1 VL with G28Y, S30E
With B12, the Kd under setting [1] came to 0.68 nM. In addition, where the note is “apparent”, the “Ka” value is 870000 M⁻¹ s⁻¹ and the “Kd” value came to 0.0006 s⁻¹.

B13: 26D5-295-E07-mAb: human IgG1f/kappa mAb; VH SEQ ID NO: 66, VL SEQ ID NO: 88 (antibody, V domains shown)
VH: B1 VH with T28Q, Q33A, F34M, Y50F, F51I, P53S, K97R, A98G
VL: B1 VL
In the case of B13, the Kd under setting [1] turned out to be 1.2 nM. Under “apparent”, the “Ka” value was 190000 M⁻¹ s⁻¹ and the “Kd” value turned out to be 0.00023 s⁻¹.

B14: 26D5-75576-348-B03-mAb: human IgG1f/kappa mAb; VH SEQ ID NO: 59, VL SEQ ID NO: 88 (antibody, V domains shown)
VH: B1 VH with Q33D, F34M, W36Y, S49A, F51I, P53S, A96V, K97T
VL: B1 VL
For the molecule B14, the Kd by setting is: under setting [1], below 0.06 nM; (apparent) below 5e-05 s⁻¹. Under “apparent”, the “Ka” value came to 880000 M⁻¹ s⁻¹.

B15: 26D5-296-D08-mAb: human IgG1f/kappa mAb; VH SEQ ID NO: 69, VL SEQ ID NO: 95 (antibody, V domains shown)
VH: B1 VH with Q33Y, F34M, Y50F, F51I, K97R, A98G
VL: B1 VL with G28Y, S30E
As for B15, the Kd under setting [1] was determined as 0.59 nM. Further, where the note is “apparent”, the “Ka” value was determined as 770000 M⁻¹ s⁻¹ and the “Kd” value was 0.00045 s⁻¹.

B16: 26D5-295-C07-mAb: human IgG1f/kappa mAb; VH SEQ ID NO: 67, VL SEQ ID NO: 88 (antibody, V domains shown)
VH: B1 VH with Q33A, F34M, Y50F, F51I, P53S, K97R, A98G
VL: B1 VL
B16: the Kd under setting [1] turned out to be 1.6 nM. For the same molecule, for the setting “apparent”, the “Ka” value was 200000 M⁻¹ s⁻¹ and the “Kd” value is 0.00033 s⁻¹.

B17: 26D5-296-H03-mAb: human IgG1f/kappa mAb; VH SEQ ID NO: 63, VL SEQ ID NO: 88 (antibody, V domains shown)
VH: B1 VH with Q33A, F34M, Y50F, F51I, K97R, A98G
VL: B1 VL
Take B17: the Kd under setting [1] was 1.1 nM. Where the note is “apparent”, the “Ka” value was 160000 M⁻¹ s⁻¹ and the “Kd” value is 0.00018 s⁻¹.

B18: 26D5-295-F07-mAb: human IgG1f/kappa mAb; VH SEQ ID NO: 64, VL SEQ ID NO: 88 (antibody, V domains shown)
VH: B1 VH with S31E, Q33A, F34M, Y50F, F51I, P53S, K97R, A98G
VL: B1 VL
Take B18: the Kd under setting [1] was 0.94 nM. Where the note is “apparent”, the “Ka” value came out at 180000 M⁻¹ s⁻¹ and the “Kd” value worked out at 0.00017 s⁻¹.

B19: 26D5-296-F07-mAb: human IgG1f/kappa mAb; VH SEQ ID NO: 71, VL SEQ ID NO: 94 (antibody, V domains shown)
VH: B1 VH with Q33Y, F34M, Y50F, F51I, P53S, K97R
VL: B1 VL with G28Y
Turning to B19, the Kd under setting [1] is 0.58 nM. For the setting “apparent”, the “Ka” value was determined as 760000 M⁻¹ s⁻¹ and the “Kd” value was found to be 0.00044 s⁻¹.

B20: 26D5-296-G03-mAb: human IgG1f/kappa mAb; VH SEQ ID NO: 72, VL SEQ ID NO: 88 (antibody, V domains shown)
VH: B1 VH with T28Q, Q33Y, F34M, Y50F, F51I, K97R
VL: B1 VL
In the case of B20, the Kd under setting [1] came to 0.61 nM. Moreover, where the note is “apparent”, the “Ka” value came out at 940000 M⁻¹ s⁻¹ and the “Kd” value worked out at 0.00058 s⁻¹.
